Drawing on patent US20260285997 (published 2026), this text covers Kd for 8 molecules.

The chains are these.
B1: BEAT 2a7 FLAG arm (antibody)
chain: QVQLVQSGAEVKKPGASVKVSCKASGYSFTTYTIHWVRQAPGQGLEWIGYINPSSGYAAYNQKFQGRVTLTADKSTSTAYMELSSLRSEDTAVYYCAREKFYGYDYWGQGTTVTVSSGGGGSGGGGSGGGGSGGGGASDVVMTQSPDSLAVSLGERATINCKSSQSIVHRNGNTYLEWYQQKPGQPPKLLIYKVSNRFSGVPDRFSGSGSGTDFTLTISSLQAEDVAVYYCFQGSHVPYTFGGGTKLEIK
B2: BEAT 2a6 FLAG arm (antibody)
chain: QVQLVQSGAEVKKPGASVKVSCKASGYSFTTYTIHWVRQAPGQGLEWIGYINPSSGYAAYNQKFQGRVTLTADKSTSTAYMELSSLRSEDTAVYYCAREKFYGYDYWGQGTTVTVSSGGGGSGGGGSGGGGSGGGGASDVVMTQSPDSLAVSLGERATINCKSSQSIVHRNGNTYLEWYQQKPGQPPKLLIYKVSNRFSGVPDRFSGSGSGTDFTLTISSLQAEDVAVYYCFQGSHVPYTFGGGTKLEIK
B3: BEAT 2a5 FLAG arm (antibody)
chain: QVQLVQSGAEVKKPGASVKVSCKASGYSFTTYTIHWVRQAPGQGLEWIGYINPSSGYAAYNQKFQGRVTLTADKSTSTAYMELSSLRSEDTAVYYCAREKFYGYDYWGQGTTVTVSSGGGGSGGGGSGGGGSGGGGASDVVMTQSPDSLAVSLGERATINCKSSQSIVHRNGNTYLEWYQQKPGQPPKLLIYKVSNRFSGVPDRFSGSGSGTDFTLTISSLQAEDVAVYYCFQGSHVPYTFGGGTKLEIK
B4: BEAT 2a8 FLAG arm (antibody)
chain: QVQLVQSGAEVKKPGASVKVSCKASGYSFTTYTIHWVRQAPGQGLEWIGYINPSSGYAAYNQKFQGRVTLTADKSTSTAYMELSSLRSEDTAVYYCAREKFYGYDYWGQGTTVTVSSGGGGSGGGGSGGGGSGGGGASDVVMTQSPDSLAVSLGERATINCKSSQSIVHRNGNTYLEWYQQKPGQPPKLLIYKVSNRFSGVPDRFSGSGSGTDFTLTISSLQAEDVAVYYCFQGSHVPYTFGGGTKLEIK
B5: BEAT 2a2 FLAG arm (antibody)
chain: DVVMTQSPDSLAVSLGERATINCKSSQSIVHRNGNTYLEWYQQKPGQPPKLLIYKVSNRFSGVPDRFSGSGSGTDFTLTISSLQAEDVAVYYCFQGSHVPYTFGGGTKLEIKGGGGSGGGGSGGGGSQVQLVQSGAEVKKPGASVKVSCKASGYSFTTYTIHWVRQAPGQGLEWIGYINPSSGYAAYNQKFQGRVTLTADKSTSTAYMELSSLRSEDTAVYYCAREKFYGYDYWGQGTTVTVSS
B6: BEAT 2a4 FLAG arm (antibody)
chain: DVVMTQSPDSLAVSLGERATINCKSSQSIVHRNGNTYLEWYQQKPGQPPKLLIYKVSNRFSGVPDRFSGSGSGTDFTLTISSLQAEDVAVYYCFQGSHVPYTFGGGTKLEIKGGGGSGGGGSGGGGSQVQLVQSGAEVKKPGASVKVSCKASGYSFTTYTIHWVRQAPGQGLEWIGYINPSSGYAAYNQKFQGRVTLTADKSTSTAYMELSSLRSEDTAVYYCAREKFYGYDYWGQGTTVTVSS
B7: BEAT 2a3 FLAG arm (antibody)
chain: DVVMTQSPDSLAVSLGERATINCKSSQSIVHRNGNTYLEWYQQKPGQPPKLLIYKVSNRFSGVPDRFSGSGSGTDFTLTISSLQAEDVAVYYCFQGSHVPYTFGGGTKLEIKGGGGSGGGGSGGGGSQVQLVQSGAEVKKPGASVKVSCKASGYSFTTYTIHWVRQAPGQGLEWIGYINPSSGYAAYNQKFQGRVTLTADKSTSTAYMELSSLRSEDTAVYYCAREKFYGYDYWGQGTTVTVSS
B8: BEAT 1a8 FLAG arm (antibody)
chain: QVQLVQSGAEVKKPGASVKVSCKASGYSFTTYTIHWVRQAPGQGLEWIGYINPSSGYAAYNQKFQGRVTLTADKSTSTAYMELSSLRSEDTAVYYCAREKFYGYDYWGQGTTVTVSSGGGGSGGGGSGGGGSGGGGASDVVMTQSPDSLAVSLGERATINCKSSQSIVHRNGNTYLEWYQQKPGQPPKLLIYKVSNRFSGVPDRFSGSGSGTDFTLTISSLQAEDVAVYYCFQGSHVPYTFGGGTKLEIK

Values joined by “and” are separate entries in the source; they are usually repeats but may differ in a detail not shown here. Equal values may be shown once.

For one assay, the target named is T1, FLAG-BAP (FLAG tag fused to bacterial alkaline phosphatase). In words: SPR. (Surface plasmon resonance follows binding to a sensor surface in real time, without labels.)
For B1, the Kd (in general, the concentration at which binding is half-saturated) is 6.59 nM and 9.46 nM. Still for that read-out and setting: the value for B2 was 35.1 nM and 32.6 nM; that for B3 was 19.5 nM and 18.1 nM; that for B4 was 10.8 nM and 9.09 nM. Still for that read-out and setting: the value for B5 was 51.9 nM and 21.7 nM. The same measure, in the same setting: for B6 the value was 13.3 nM and 17 nM; for B7, 5.13 nM and 2.63 nM and 3.04 nM.

A further assay addresses T1, FLAG-BAP. In words: SPR. The source holds these as a separate data set.
For the molecule B8, the Kd is 10.1 nM and 8.85 nM.
